The values below come from paper PMC5543122, “Structural basis of Notch O-glucosylation and O–xylosylation by mammalian protein–O-glucosyltransferase 1 (POGLUT1)” (Nature Communications, 2017).

For the first assay, the target named is Drosophila Rumi, residues 39-406 (Drosophila) (UniProt Q8T045).
Chain of UniProt Q8T045 (Q8T045 39-406): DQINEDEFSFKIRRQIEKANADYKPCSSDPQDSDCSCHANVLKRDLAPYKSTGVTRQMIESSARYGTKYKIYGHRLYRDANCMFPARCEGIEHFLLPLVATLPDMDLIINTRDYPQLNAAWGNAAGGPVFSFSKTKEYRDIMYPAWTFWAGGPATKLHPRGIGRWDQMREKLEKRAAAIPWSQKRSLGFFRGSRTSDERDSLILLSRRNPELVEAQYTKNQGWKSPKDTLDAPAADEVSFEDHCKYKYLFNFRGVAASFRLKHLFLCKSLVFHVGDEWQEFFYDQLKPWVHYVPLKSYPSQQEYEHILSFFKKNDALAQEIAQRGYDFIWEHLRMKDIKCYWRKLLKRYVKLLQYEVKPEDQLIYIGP
“human Notch1 EGF-like domain 12 with a 4-residue C2C3 loop, MBP fusion (from UniProt P46531 452-488) (domain or fragment)” gave a K M of the EGF-like domain (MBP fusion) for glucosylation, 2.5 mM UDP-glucose, coupled spectrophotometric assay, 37 °C of 160 µM.
“human Notch1 EGF-like domain 12 with a 6-residue C2C3 loop, MBP fusion (from UniProt P46531 452-488) (domain or fragment)” had a K M of the EGF-like domain (MBP fusion) for glucosylation, 2.5 mM UDP-glucose, coupled spectrophotometric assay, 37 °C of 1000 µM.
The same measure, in the same setting: to “human Notch1 EGF-like domain 12 with a 7-residue C2C3 loop, MBP fusion (from UniProt P46531 452-488) (domain or fragment)” belongs 1000 µM.

Another assay addresses human Protein O-glucosyltransferase 1 (POGLUT1), residues 29-385 (human) (UniProt Q8NBL1).
Chain of UniProt Q8NBL1 (Q8NBL1 29-385): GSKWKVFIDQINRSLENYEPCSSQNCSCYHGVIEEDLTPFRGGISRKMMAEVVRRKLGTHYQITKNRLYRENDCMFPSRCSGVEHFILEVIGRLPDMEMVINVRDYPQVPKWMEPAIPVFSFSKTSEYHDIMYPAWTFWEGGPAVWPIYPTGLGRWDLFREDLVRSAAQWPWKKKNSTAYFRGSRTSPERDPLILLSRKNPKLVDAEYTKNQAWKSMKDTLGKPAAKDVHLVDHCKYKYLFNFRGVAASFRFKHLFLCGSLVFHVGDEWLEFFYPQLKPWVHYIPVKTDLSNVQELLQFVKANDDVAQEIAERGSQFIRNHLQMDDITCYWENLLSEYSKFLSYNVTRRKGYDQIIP
For the substance “human Notch1 EGF-like domain 12 with a 4-residue C2C3 loop, MBP fusion (from UniProt P46531 452-488) (domain or fragment)”, the K M of the EGF-like domain (MBP fusion) for glucosylation, 2.5 mM UDP-glucose, coupled spectrophotometric assay, 37 °C is 155 µM.
The same measure, in the same setting: to “human Notch1 EGF-like domain 12 with a 6-residue C2C3 loop, MBP fusion (from UniProt P46531 452-488) (domain or fragment)” belongs 1000 µM; to “human Notch1 EGF-like domain 12 with a 7-residue C2C3 loop, MBP fusion (from UniProt P46531 452-488) (domain or fragment)”, 1000 µM.
